Measurements as given in patent US20230090901A1 (GAMMADELTA THERAPEUTICS, published 2023).

Key:
[1] = target: L3 (DV1-GV8), soluble leucine zipper γδ TCR heterodimer of a delta variable 1 chain and a gamma variable 8 … (human); assay: DELFIA ELISA, coated antigen;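 also: binding of antibody supernatants or protein-A purified antibodies to plate-coated antigen (3 µg/ml recombinant TCR or BSA), 1 h incubation at room temperature, DELFIA readout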
Protocol: (§1) A DELFIA ELISA binding method was also employed to assess binding of antibody supernatants or further protein-A purified antibody. In brief, MaxiSorp plates were coated with 3 μg/ml of antigen BSA or L1 (DV1-GV4), L2 (DV1-GV2), L3 (DV1-GV8), or L4 (DV2-GV4) recombinant TCR antigen. Plates were then washed with PBS, blocked with PBS/skimmed milk and then test article added and incubated for 1 hour at room temperature.

BSA = target: T1, BSA (bovine, UniProt P02769); assay: DELFIA ELISA, coated antigen;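 also: binding of antibody supernatants or protein-A purified antibodies to plate-coated antigen (3 µg/ml recombinant TCR or BSA), 1 h incubation at room temperature, DELFIA readout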
T1 construct: coated at 3 µg/ml; also called bovine serum albumin, control antigen of the DELFIA ELISA
Protocol: as §1

[2] = target: L2 (DV1-GV2), soluble leucine zipper γδ TCR heterodimer of a delta variable 1 chain and a gamma variable 2 … (human); assay: DELFIA ELISA, coated antigen;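 also: binding of antibody supernatants or protein-A purified antibodies to plate-coated antigen (3 µg/ml recombinant TCR or BSA), 1 h incubation at room temperature, DELFIA readout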
Protocol: as §1

[3] = target: T2, L1 (DV1-GV4), soluble leucine zipper γδ TCR heterodimer of a delta variable 1 chain and a gamma variable 4 … (human); assay: DELFIA ELISA, coated antigen;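 also: binding of antibody supernatants or protein-A purified antibodies to plate-coated antigen (3 µg/ml recombinant TCR or BSA), 1 h incubation at room temperature, DELFIA readout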
T2 construct: also called bt-L1; not shown: histidine tag/linker said to follow the zipper

[4] = target: T2, L1 (DV1-GV4), soluble leucine zipper γδ …; assay: SPR (Reichert 4SPR), L1 coupled to chip, IgG1 flowed, steady state 1:1 fit; experiment 2
Protocol: (§2) In brief, the binding affinity of the antibodies to target (i.e. the human Vγ4 chain of a γδ TCR) was established by SPR analysis using a Reichert 4SPR instrument (Reichert Technologies). […] All experiments were performed at room temperature, with the samples kept at 4° C. before flowing over the chip. Steady state fitting was determined according to Langmuir 1:1 binding using software TraceDrawer (Reichert Technologies).

[5] = target: T2, L1 (DV1-GV4), soluble leucine zipper γδ …; assay: SPR (Reichert 4SPR), L1 coupled to chip, IgG1 flowed, steady state 1:1 fit; average column (one experiment)
Protocol: as §2

[6] = target: T2, L1 (DV1-GV4), soluble leucine zipper γδ …; assay: SPR (Reichert 4SPR), L1 coupled to chip, IgG1 flowed, steady state 1:1 fit; experiment 1
Protocol: as §2

[7] = target: T3, Vγ4 chain-bearing γδ TCR on primary human Vγ4+ T cells (skin, PBMC, gut) (human); assay: flow cytometry titration on skin-derived Vγ4+ T cells, left plot, anti-human IgG1 secondary
T3 construct: Polyclonal natural receptors; only the germline Vγ4 region is common to them; also called primary Vγ4+ T cells; primary skin-derived Vγ4+ T cells
Protocol: Detection was performed by addition of a secondary, fluorescent dye-conjugated antibody against human IgG1 (IS11-12E4.23.20). Cells were then fixed and acquired on the MACSQuant16 flow cytometer. Cells were gated as single, live, IgG1 (Vγ4)⁺. Data shown are the median fluorescent intensity (MFI) of secondary detection antibody detected bound to Vγ4⁺ cells.

[8] = target: T2, L1 (DV1-GV4), soluble leucine zipper γδ …; assay: SPR (Reichert 4SPR), L1 coupled to chip, IgG1 flowed, steady state 1:1 fit; average
Protocol: as §2

T1 sequence (P02769 25-607 limits assumed): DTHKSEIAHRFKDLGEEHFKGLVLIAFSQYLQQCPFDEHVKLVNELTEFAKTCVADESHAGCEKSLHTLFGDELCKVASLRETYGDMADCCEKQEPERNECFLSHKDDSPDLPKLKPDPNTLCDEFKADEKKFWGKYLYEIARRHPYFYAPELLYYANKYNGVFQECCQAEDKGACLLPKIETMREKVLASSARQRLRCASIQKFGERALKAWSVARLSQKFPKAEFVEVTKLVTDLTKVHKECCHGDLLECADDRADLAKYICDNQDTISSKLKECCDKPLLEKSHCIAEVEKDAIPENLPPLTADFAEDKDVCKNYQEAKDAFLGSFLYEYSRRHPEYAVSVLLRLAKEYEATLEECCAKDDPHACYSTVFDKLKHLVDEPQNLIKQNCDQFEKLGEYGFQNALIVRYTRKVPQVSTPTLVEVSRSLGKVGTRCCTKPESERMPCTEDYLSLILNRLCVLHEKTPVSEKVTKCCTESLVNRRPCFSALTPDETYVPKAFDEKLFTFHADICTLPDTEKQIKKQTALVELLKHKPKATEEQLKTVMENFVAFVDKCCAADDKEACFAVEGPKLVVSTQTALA
T2 sequence (main, as listed by the source, chain 1 of 2): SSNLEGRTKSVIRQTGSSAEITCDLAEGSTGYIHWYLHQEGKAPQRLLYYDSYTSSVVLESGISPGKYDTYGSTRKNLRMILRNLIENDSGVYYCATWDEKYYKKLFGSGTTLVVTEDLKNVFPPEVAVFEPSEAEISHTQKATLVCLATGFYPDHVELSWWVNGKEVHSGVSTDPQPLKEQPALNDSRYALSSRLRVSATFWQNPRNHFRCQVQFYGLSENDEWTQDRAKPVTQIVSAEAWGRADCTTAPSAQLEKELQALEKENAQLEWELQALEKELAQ
T2 sequence (main, as listed by the source, chain 2 of 2): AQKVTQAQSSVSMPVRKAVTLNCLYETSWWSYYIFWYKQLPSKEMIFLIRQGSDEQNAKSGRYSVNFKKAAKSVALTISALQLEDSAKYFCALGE
L3 (DV1-GV8), soluble leucine zipper γδ TCR heterodimer of a delta variable 1 chain and a gamma variable 8 … (human), sequence (chain, as listed by the source mutant, chain 1 of 2): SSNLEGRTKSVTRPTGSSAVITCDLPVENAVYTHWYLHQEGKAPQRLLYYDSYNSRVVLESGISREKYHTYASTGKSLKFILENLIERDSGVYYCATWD
L3 (DV1-GV8), soluble leucine zipper γδ TCR heterodimer of a delta variable 1 chain and a gamma variable 8 … (human), sequence (chain, as listed by the source mutant, chain 2 of 2): as the sequence (main, as listed by the source, chain 2 of 2) above
L2 (DV1-GV2), soluble leucine zipper γδ TCR heterodimer of a delta variable 1 chain and a gamma variable 2 … (human), sequence (chain, as listed by the source mutant, chain 1 of 2): as the sequence (main, as listed by the source, chain 1 of 2) above, with T30N, L48Q, T54N, S56K, I63V, D69Y, G72A, K76N, M80L counted along it
L2 (DV1-GV2), soluble leucine zipper γδ TCR heterodimer of a delta variable 1 chain and a gamma variable 2 … (human), sequence (chain, as listed by the source mutant, chain 2 of 2): as the sequence (main, as listed by the source, chain 2 of 2) above
T3 sequence (main, as listed by the source): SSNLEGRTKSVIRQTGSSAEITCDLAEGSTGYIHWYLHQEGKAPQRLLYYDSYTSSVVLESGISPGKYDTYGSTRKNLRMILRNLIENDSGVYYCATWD

Binder	DELFIA ELISA response (FU) [1]	DELFIA ELISA response (FU) (BSA)	binding result (BSA)	DELFIA ELISA response (FU) [2]	DELFIA ELISA response (FU) [3]	Kd [4]	Kd [5]	Kd [6]	EC50 (read off the curve) [7]	Kd [8]
G4_2 (antibody, human IgG1, V domains shown, also called clone G4_2) VH: QMQLVQSGAEVKKPGATVKISCKVSGYPFTDYYIHWVQQAPGKGLEWMGLVDPEDGQSRSAERFQGRVTITADTSTDTAYMELSSLRSEDTAVYYCATFPVAGFYGMDVWGQGTLVTVSS VL: DIQMTQSPSSLSASVGDRVTITCQASQDISNYLNWYQQKPGKAPKLLIYAASSLQSGVPSRFSGSGSGTDFTLTISGLQPEDFATYYCLEDYNYLWTFGQGTKLEIKR	270 FU	56 FU	no binding	86 FU	201000 FU					
G4_10 (antibody, human IgG1, V domains shown, also called clone G4_10) VH: QVQLVESGGGVVQPGRPLRLSCAASGFTFSSYAMHWVRQAPGKGLEWVSAISGSGGSTYYADSVKGRFTISRDNSKNTLYLQMNSLRAEDTAVYYCAKDGAVDFWRNGMDVWGRGTLVTVSS VL: DIVMTQPPLSLPVTLGHPASISCKSSQSLEYSDGNTYLNWFQQRPGQSPRRLIYKVSNRDSGAPDRFSGSGSGTDFTLEISRVEAEDVGVYYCMQGTLWPPTFGQGTKVDIKR	187 FU	57 FU	no binding	109 FU	145000 FU					
G4_3 (antibody, human IgG1, V domains shown, also called 1139_P01_A04; G4_03) VH: EVQLVESGGGLVQPGGSLRLSCAASGFTFSSYSMNWVRQAPGKGLEWVSSISSSSSYIYYADSVKGRFTISRDNSKNTLYLQMNSLRAEDTAVYYCARGGWLYDYWGQGTLVTVSS VL: DIQMTQSPSSLSASVGDRVTITCQASQDISNYLNWYQQKPGKAPKLLIYDASNLETGVPSRFSGSGSGTDFTLTISSLQPEDFATYFCQQSYSTPQTFGQGTKVDIKR	239 FU	88 FU	no binding	216 FU	213000 FU	2.03 nM		3.69 nM		2.86 nM

Further lines, results first:

DELFIA ELISA response (FU) [1]	DELFIA ELISA response (FU) (BSA)	binding result (BSA)	DELFIA ELISA response (FU) [2]	DELFIA ELISA response (FU) [3]	Kd [4]	Kd [5]	Kd [6]	EC50 (read off the curve) [7]	Kd [8]	Binder
185 FU	67 FU	no binding	66 FU	197000 FU	19.9 nM	19.9 nM				G4_18 (antibody, human IgG1, V domains shown, also called 1254_P01_H04; clone G4_18) VH: EVQLVESGAEVKKPGASVKVSCKASGYTFTGYYMHWVRQAPGQGLEWMGRINPNSGGTNYAQKFQGRVTMTRDASISTAYMELSRLRSDDTAVYYCARDLDLSSLDYWGRGTLVTVSS VL: SSYELTQPPSVTESPGQTARITCSGDALAKQYAYWYQQKPGQAPVLVIYRDSERPSEIPERFSGSSSGTTVTLTISGVQAEDEADYYCQSADSSGTYTVFGGGTKLTVLG
1690 FU	40 FU	no binding	579 FU	138000 FU		261 nM	261 nM			G4_27 (antibody, human IgG1, V domains shown, also called 1248_P02_C10; clone G4_27) VH: QVQLVQSGAEVKKPGESLKISCKSSGYSFTSYWIGWVRQMPGKGLEWMGIIYPGDSDTRYSPSFQGQVTFSADESISTAYLQWSSLKASDTAMYYCARHGAYGDYPDTFDIWGQGTLVTVSS VL: SSYELTQDPAVSVALGQTVSITCQGDSLRNFYANWYQQKPGQAPVLVIYGKNNRPSGIPDRFSGSSSGNTASLTITGAQAEDEADYYCNSRDSSGNHLVFGGGTQLTVLG
252 FU	80 FU	no binding	229 FU	237000 FU	20.2 nM		17.8 nM	~1 µg/mL	19 nM	G4_12 (antibody, human IgG1, V domains shown, also called 1140_P01_G08; clone G4_12) VH: EVQLLESGGGLVQPGGSLRLSCAASGFTVSSNYMSWVRQAPGKGLEWVSVIYSGGSTYYADSVKGRFTISRHNSKNTLYLQMNSLRAEDTAVYYCARVANGDFLDYWGRGTLVTVSS VL: SQSVLTQPASVSGSPGQSITISCTGTSSDVGGYNFVSWYQQHPGKAPKLMIYEVTNRPSGVPDRFSGSKSGNTASLTISGLQAEDEADYYCSSHASPRVFGTGTKVTVLG
239 FU	132 FU	no binding	147 FU	184000 FU	62.1 nM		43 nM	~2 µg/mL	52.5 nM	G4_20 (antibody, human IgG1, V domains shown, also called 1254_P02_G02; clone G4_20) VH: QVQLVESGAEVKKPGASVKVSCKASGGTFSSYAISWVRQAPGQGLEWMGGIIPIFGTANYAQKFQGRVTITVDKSTRTAYMELSSLRSKDTAVYYCARGNSRSDAFDIWGQGTMVTVSS VL: SSYELTHPPSVSVSPGQTASITCSGDKLGDKFVSWYHQKPGQSPVLVIYQDSKRPSGIPERFSGSNSGNTATLTISGTRAMDEADYYCQAWDSSTVVFGGGTKLTVLG
